Experiments:
rSAS1R = molecular target: T1, rSAS1R (Mus musculus, UniProt Q6HA09); test: Far-Western analysis between SAS1R and SLLP1; assay type: binding
T1 construct: The mature rSAS1R (414 residues); 20 vector-encoded residues including His6 (pET-28b) (N); made in house; host or cells: E. coli BL21DE3
T1 sequence (Q6HA09 22-435): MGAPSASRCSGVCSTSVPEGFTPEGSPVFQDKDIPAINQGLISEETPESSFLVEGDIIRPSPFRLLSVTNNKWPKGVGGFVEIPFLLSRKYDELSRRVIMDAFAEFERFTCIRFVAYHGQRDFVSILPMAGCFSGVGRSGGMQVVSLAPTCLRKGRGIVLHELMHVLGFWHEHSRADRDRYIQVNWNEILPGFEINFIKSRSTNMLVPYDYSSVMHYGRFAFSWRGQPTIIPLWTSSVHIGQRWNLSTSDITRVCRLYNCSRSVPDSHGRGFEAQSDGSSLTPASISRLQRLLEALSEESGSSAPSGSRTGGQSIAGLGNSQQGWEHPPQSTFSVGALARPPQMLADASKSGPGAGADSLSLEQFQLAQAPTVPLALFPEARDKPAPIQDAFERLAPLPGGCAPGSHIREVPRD
T1 sequence (Q9D9X8 94-221 partner limits assumed): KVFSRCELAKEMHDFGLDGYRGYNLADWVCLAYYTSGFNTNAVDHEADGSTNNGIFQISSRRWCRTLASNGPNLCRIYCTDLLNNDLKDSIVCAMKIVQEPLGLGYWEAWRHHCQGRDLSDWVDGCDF
Description: Purified rSAS1R on nitrocellulose membrane was overlaid or not with soluble rSLLP1, washed and probed with anti-SLLP1 antibody.
Purified recombinant SAS1R was resolved by SDS-PAGE and transferred to nitrocellulose membranes. The membrane was probed with c-terminal anti-his monoclonal antibody and developed with TMB. Duplicate SAS1R blotted strips were overlaid with mouse rSLLP1 or not (with 5 μg/ml in blocking buffer i.e., 5% milk in PBS with 0.05% Tween 20 [PBST]) for 90 min at room temperature. Before protein overlay, the strips were incubated with blocking buffer for 1 h. Following overlay, the strips were incubated with either anti-SLLP1 (ADD2) monoclonal antibody for 1 h in blocking buffer. After washing in PBST (×4), the strips were probed with goat anti-mouse HRP secondary antibody in blocking buffer for 1 h, washed in PBST (×4) followed by PBS (×1), and developed with TMB.
To that end, 7.0 μg of recombinant ZEP was loaded onto a 12% SDS gel, subjected to PAGE, and transferred to a nitrocellulose membrane. The membrane was overlaid (OL) with recombinant SLLP1 (2.0 μg/ml) and probed with anti-SLLP1 monoclonal antibody and secondary antibody.

zona-free mouse eggs [1] = test: In vitro fertilization with zona-free eggs (sperm-oolemma binding and fusion); assay type: cell-based
Description: For the sperm-oolemma binding assay, two cauda epididymides were placed in 900 μl drops of fertilization medium under paraffin oil for the dense mass of spermatozoa to flow freely for ˜15 min and then diluted at 1×10^6/ml for 3 h of capacitation. Cumulus oocyte complexes were placed in 200 μl drops of TYH medium under paraffin oil. Cumulus cells were removed by treating the oocytes for 3 min with 1 mg/ml hyaluronidase in TYH medium and then washed 8 times in 50 μl drops. Zona pellucidae were loosened by treating the oocytes with 10 μg/ml chymotrypsin in TYH media for 1 min and loosened zonae were removed by mechanical agitation using a pulled Pasteur pipette. The oocytes were then washed 10 times and allowed to recover from chymotrypsin treatment by incubating in TYH media for 3 h, following which, they were stained with 10 μg/ml Hoechst dye for 10 min, and then gently washed. […]
To compare the effects of recmSLLP1 with human and chicken c lysozymes, spermatozoa were first incubated under standard capacitating conditions. Oocytes were pre-incubated for 45 min before insemination with recmSLLP1 (0.1 to 200 μg/ml) or with hSLLP1 (25 μg/ml) or with chicken or human lysozyme (50 μg/ml, 100 μg/ml). Untreated capacitated sperm were then added to the incubation drops containing the treated eggs with a final sperm concentration of 2.5×10^4/ml. Thus, in all the experiments performed the sera, the recombinant protein, or the lysozyme was present in the incubation droplet during gamete interaction. After 30 min of gamete co-incubation, oocytes were gently washed 5 times in TYH medium and placed between a microscope slide and an elevated coverslip and visualized at 160×. Binding to the oocyte was scored by counting the number of bound spermatozoa per oocyte using phase contrast. Fusion with the egg was scored by counting the number of decondensed sperm heads within each oocyte using fluorescence microscopy.

recombinant MET = molecular target: T2, recombinant MET (Mus musculus, UniProt Q9CWU5); test: Far-Western analysis of MET and SLLP1; assay type: binding; conditions: 7 μg recombinant MET, recombinant SLLP1 overlay 2 μg/ml
T2 construct: A complete cDNA encoding 440 amino acids was amplified from cDNA library (Ambion) of mouse ovary and cloned in pET expression vector; His-tag (pET fusion); made in house; host or cells: E. coli BL21
T2 sequence (Q9CWU5 1-440): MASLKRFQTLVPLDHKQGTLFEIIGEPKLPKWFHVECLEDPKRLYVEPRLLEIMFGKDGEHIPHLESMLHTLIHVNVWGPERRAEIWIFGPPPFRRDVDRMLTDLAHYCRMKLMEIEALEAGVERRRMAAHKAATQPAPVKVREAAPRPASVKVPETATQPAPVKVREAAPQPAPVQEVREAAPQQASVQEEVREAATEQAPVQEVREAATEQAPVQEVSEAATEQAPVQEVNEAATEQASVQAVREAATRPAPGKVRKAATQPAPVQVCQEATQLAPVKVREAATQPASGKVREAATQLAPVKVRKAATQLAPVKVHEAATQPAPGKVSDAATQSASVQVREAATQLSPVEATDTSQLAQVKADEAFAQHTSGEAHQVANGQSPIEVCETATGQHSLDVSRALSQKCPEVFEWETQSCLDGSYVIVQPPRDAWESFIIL
T2 sequence (Q9D9X8 94-221 partner limits assumed): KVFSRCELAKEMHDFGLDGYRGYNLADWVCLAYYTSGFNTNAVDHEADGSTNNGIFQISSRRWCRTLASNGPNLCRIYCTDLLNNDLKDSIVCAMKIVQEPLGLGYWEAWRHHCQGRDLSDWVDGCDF
Description: To that end, 7 μg of recombinant MET was loaded on 12% SDS-PAGE and transferred to nitrocellulose. The membrane was overlaid (OL) with recombinant SLLP1 (2 μg/ml) and probed with anti-SLLP1 monoclonal antibody and secondary antibody.

zona-free mouse eggs [2] = test: In vitro fertilization with zona-free eggs (sperm-oolemma binding and fusion); assay type: cell-based; remark: listed apart in the source
[3] = rSLLP1 overlay 5 μg/ml, anti-SLLP1 monoclonal antibody
[4] = recmSLLP1 200 μg/ml (12.5 μM), oocytes pre-incubated
[5] = relative to the controls, including recombinant egg protein ePAD

B1: recmSLLP1: mature mouse SLLP1, residues 94 to 221, six-histidine C terminal tag, expressed in E. coli, about 15 kDa (protein)
chain: KVFSRCELAKEMHDFGLDGYRGYNLADWVCLAYYTSGFNTNAVDHEADGSTNNGIFQISSRRWCRTLASNGPNLCRIYCTDLLNNDLKDSIVCAMKIVQEPLGLGYWEAWRHHCQGRDLSDWVDGCDF
modifications: left off: small tags and cut ends
rSAS1R; 7.0 μg recombinant ZEP, recombinant SLLP1 overlay 2.0 μg/ml
  binding to recombinant ZEP bands: signal was observed with the upper band of ZEP, but not with the lower band
rSAS1R; [3]
  interaction with C-terminal SAS1R fragment (~25 kD): very weakly
  interaction with full length SAS1R doublet (~51, ~50 kD): interacted strongly
zona-free mouse eggs [1]; 50 μg of mouse SLLP1
  sperm-egg binding and fusion: maximally inhibited
zona-free mouse eggs [1]; [4]
  inhibition of binding: 100%
  inhibition of fusion: 100%
zona-free mouse eggs [1]; recmSLLP1 0.1-200 μg/ml
  lowest concentration with significant effect on spermatozoa bound to or fused to the egg: 0.1 µg/mL
zona-free mouse eggs [1]; [5]
  sperm-egg binding, number of sperm bound/egg: essentially completely inhibit
  sperm-egg fusion: essentially completely inhibit
Recombinant MET
  binding to purified MET: strong signal
zona-free mouse eggs [2]
  percentages of motile spermatozoa compared to the control: no difference

Reference: US9803012B2, “Compositions and methods for regulating SAS1R” (UNIVERSITY OF VIRGINIA PATENT FOUNDATION, priority 2005, dated 2017)
